A short description of this series: self-splicing fitness, log relative to wild type (ln ratio); higher = more splicing; Tetrahymena group I intron in knt gene, E. coli kanamycin selection, DiMSum; sequences stand for … in CUCUCU…GGAGGGAAAAGUUAUCAGGCAUGCACCUGGUAGCUAGUCUUUAAACCAAUAGAUUGCAUCGGUUUAAAAGGCAAGACCGUCAAAUUGCGGGAAAGGGGUCAACAGCCGUUCAGUACCAAGUCUCAGGGGAAACUUUGAGAUGGCCUUGCAAAGGGUAUGGUAAUAAGCUGACGGACAUGGUCCUAACCACGCAGCCAAGUCCUAAGUCAACAGAUCUUCUGUUGAUAUGGAUGCAGUUCACAGACUAAAUGUCGGUCGGGGAAGAUGUAUUCUUCUCAUAAGAUAUAGUCGGACCUCUCCUUAAUGGGAGCUAGCGGAUGAAGUGAUGCAACACUGGAGCCGCUGGGAACUAAUUUGUAUGCGAAAGUAUAUUGAUUAGUUUUGGAGUACUCGUGGUCG
Summed up:
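The eight P1ex-region nucleotides of an intron in the knt kanamycin-resistance gene on pET-22b(+) were all randomised and the library put into E. coli BL21(DE3). Six replicate transformations were grown overnight at 37°C or 30°C on LB agar with or without 25 μg/mL kanamycin, together with 100 μg/mL carbenicillin, 50 μM IPTG and 0.2% rhamnose. Colonies were pooled and amplicon-sequenced on an Illumina HiSeq 2500. Fitness from DiMSum is the error-weighted combination of wild-type-normalised replicate fold changes, kanamycin over none.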

± gives the uncertainty stated by the source.

For AGCAAGCAAUAUUACGCGUG, the “self-splicing fitness (ln)” value was -3.87 ± 0.19 (30 °C) and -3.49 ± 0.27 (37 °C). Taken in the same sequence, the figures for GCCAAGCAAUAUUACGAGCC were -3.51 ± 0.43 and -1.99 ± 0.43. Regarding AAGCAGCAAUAUUACGCGUA, the “self-splicing fitness (ln)” value reads like this: (30 °C) -1.57 ± 0.11; (37 °C) -0.515 ± 0.1. Regarding UUGAAGCAAUAUUACGAAUU, the “self-splicing fitness (ln)” value is, setting by setting: (30 °C) -2.73 ± 0.33; (37 °C) -1.3 ± 0.31. Take AUUUAGCAAUAUUACGUUCA: the “self-splicing fitness (ln)” value was -0.355 ± 0.17 (30 °C) and -0.395 ± 0.18 (37 °C). On the same counts, the results for CAUUAGCAAUAUUACGUGAU are -3.57 ± 0.12 and -1.87 ± 0.1.

With GAACAGCAAUAUUACGCGAC, the “self-splicing fitness (ln)” value was -2.3 ± 0.14 (30 °C) and -2.36 ± 0.18 (37 °C).

Turning to CCACAGCAAUAUUACGAAUU, the “self-splicing fitness (ln)” value reads like this: (30 °C) -3.64 ± 0.18; (37 °C) -2.39 ± 0.17. As to AUAAAGCAAUAUUACGGGCA, the “self-splicing fitness (ln)” value was -0.434 ± 0.077 (30 °C) and -0.368 ± 0.08 (37 °C). AGAUAGCAAUAUUACGGCUC: the “self-splicing fitness (ln)” value is -1.14 ± 0.32 (30 °C) and -0.656 ± 0.37 (37 °C). In the case of ACGAAGCAAUAUUACGUAAG, the “self-splicing fitness (ln)” value reads like this: (30 °C) -2.37 ± 0.1; (37 °C) -1.05 ± 0.12. On the same counts, the results for GGGUAGCAAUAUUACGUUUA are -0.585 ± 0.12 and -0.381 ± 0.1.

Regarding UAUUAGCAAUAUUACGGCUU, the “self-splicing fitness (ln)” value was -1.35 ± 0.13 (30 °C) and -0.478 ± 0.17 (37 °C).

Take GUUGAGCAAUAUUACGGGCG: the “self-splicing fitness (ln)” value by setting is: (30 °C) -2.38 ± 0.18; (37 °C) -1.58 ± 0.25.

As for AGAAAGCAAUAUUACGCCUC, the “self-splicing fitness (ln)” value (30 °C) was -1.37 ± 0.17 and the “self-splicing fitness (ln)” value (37 °C) was -0.948 ± 0.23. Take AUAAAGCAAUAUUACGUUAA: the “self-splicing fitness (ln)” value reads like this: (30 °C) -1.62 ± 0.087; (37 °C) -1.16 ± 0.12. Regarding GGUCAGCAAUAUUACGGAUA, the “self-splicing fitness (ln)” value was -0.579 ± 0.086 (30 °C) and 0.248 ± 0.11 (37 °C).

On to AUACAGCAAUAUUACGUGCA, for which the “self-splicing fitness (ln)” value runs as follows: (30 °C) -1.01 ± 0.083; (37 °C) -0.648 ± 0.085.

With UUGGAGCAAUAUUACGUGUC, the “self-splicing fitness (ln)” value reads like this: (30 °C) -3.26 ± 0.22; (37 °C) -2.77 ± 0.38.

Turning to UAUGAGCAAUAUUACGGGCU, the “self-splicing fitness (ln)” value (37 °C) was -1.8 ± 0.47. Consider GAUCAGCAAUAUUACGUCUG, for which the “self-splicing fitness (ln)” value (30 °C) was -2.63 ± 0.11 and the “self-splicing fitness (ln)” value (37 °C) is -1.84 ± 0.1. Taken in the same sequence, the figures for GAGUAGCAAUAUUACGUGAU were -3.6 ± 0.33 and -2.12 ± 0.34. On to CGAUAGCAAUAUUACGUUCU, for which the “self-splicing fitness (ln)” value is, setting by setting: (30 °C) -1.15 ± 0.07; (37 °C) -0.384 ± 0.094.

In the case of GACCAGCAAUAUUACGGUAU, the “self-splicing fitness (ln)” value reads like this: (30 °C) -1.29 ± 0.056; (37 °C) -0.678 ± 0.068. On to GUCUAGCAAUAUUACGAUGG, for which the “self-splicing fitness (ln)” value was -3.48 ± 0.17 (30 °C) and -0.823 ± 0.17 (37 °C). UACAAGCAAUAUUACGUCCA: the “self-splicing fitness (ln)” value (30 °C) is -1.06 ± 0.086 and the “self-splicing fitness (ln)” value (37 °C) is -0.297 ± 0.096. Taken in the same sequence, the figures for GCACAGCAAUAUUACGCAUA were -0.997 ± 0.088 and -0.269 ± 0.085. With CGGGAGCAAUAUUACGAAAU, where the note is “37 °C”, the “self-splicing fitness (ln)” value was -1.65 ± 0.44. Consider AGCGAGCAAUAUUACGUCAA, for which the “self-splicing fitness (ln)” value is, setting by setting: (30 °C) -2.95 ± 0.48; (37 °C) -0.741 ± 0.22.

Take CCUUAGCAAUAUUACGUUCU: the “self-splicing fitness (ln)” value reads like this: (30 °C) -4.18 ± 0.46; (37 °C) -1.5 ± 0.34. Taken in the same sequence, the figures for UAAAAGCAAUAUUACGUGGC were -3.46 ± 0.2 and -2.74 ± 0.2. Regarding UACGAGCAAUAUUACGAUAU, the “self-splicing fitness (ln)” value is, setting by setting: (30 °C) -2.39 ± 0.26; (37 °C) -3.25 ± 0.37.

For AACAAGCAAUAUUACGGUAA, the “self-splicing fitness (ln)” value by setting is: (30 °C) -1.83 ± 0.1; (37 °C) -1.04 ± 0.096. As to UAGUAGCAAUAUUACGGGGA, the “self-splicing fitness (ln)” value by setting is: (30 °C) -2.44 ± 0.33; (37 °C) -3.25 ± 0.47. Regarding AGAUAGCAAUAUUACGACGA, the “self-splicing fitness (ln)” value by setting is: (30 °C) -0.422 ± 0.095; (37 °C) -0.749 ± 0.085. AUCGAGCAAUAUUACGGAAA: the “self-splicing fitness (ln)” value (37 °C) is -2.64 ± 0.34. Turning to UGAUAGCAAUAUUACGCUCU, the “self-splicing fitness (ln)” value was -1.41 ± 0.11 (30 °C) and 0.193 ± 0.15 (37 °C). Regarding UCCUAGCAAUAUUACGUGUG, the “self-splicing fitness (ln)” value reads like this: (30 °C) -2.41 ± 0.28; (37 °C) -2.47 ± 0.22.

For the origin of these results see the supplement of paper PMC7877785.
